# Assay results taken from article PMC9841404, “Werner syndrome protein works as a dimer for unwinding and replication fork regression”.
# How the values were obtained:
# [1] = target: T1, f:GFP-WRN (Werner syndrome protein) (Homo sapiens, UniProt Q14191 1-1432); experiment: single-molecule TIRF GFP photobleaching; no ATP; dimer preferred, heterogeneous up to 4 steps; 1 nM RPA did not change conclusion; Binding buffer, pH and temperature not in the material; 24 nM GFP-WRN in the forked-DNA unwinding assay (1 nM RPA); NaCl tested at 15, 50 and 150 mM on the replication fork; GFP imaging without oxygen scavenger; details: protein: recombinant; tags: N-terminal FLAG and GFP; chain copies: 2; label: Cy3 and Cy5 in the single-stranded overhangs; 5' biotin on bottom strand; fork 1:2, 3' ssDNA arm on top and 5' ssDNA arm on bottom
# [2] = target: T1, f:GFP-WRN (Werner syndrome protein); experiment: single-molecule TIRF GFP photobleaching; no ATP; tetramer (binomial n=4); Binding buffer, pH and temperature not in the material; 24 nM GFP-WRN in the forked-DNA unwinding assay (1 nM RPA); NaCl tested at 15, 50 and 150 mM on the replication fork; GFP imaging without oxygen scavenger; details: protein: recombinant; tags: N-terminal FLAG and GFP; chain copies: 2; label: Cy3 and Cy5 FRET pair; 5' biotin on leading parent; four-strand fork 1:3 2:4 3:4; 11-nt leading gap, 2-nt lagging gap; heterologous bases near junction
# [3] = target: T1, f:GFP-WRN (Werner syndrome protein); experiment: single-molecule TIRF GFP photobleaching; 1 mM ATP-Mg2+, 2 min; active molecules dimeric; Binding buffer, pH and temperature not in the material; 24 nM GFP-WRN in the forked-DNA unwinding assay (1 nM RPA); NaCl tested at 15, 50 and 150 mM on the replication fork; GFP imaging without oxygen scavenger; details: protein: recombinant; tags: N-terminal FLAG and GFP; chain copies: 2; label: Cy3 and Cy5 FRET pair; 5' biotin on leading parent; four-strand fork 1:3 2:4 3:4; heterologous distal arm ends
# T1 sequence (Q14191 whole entry): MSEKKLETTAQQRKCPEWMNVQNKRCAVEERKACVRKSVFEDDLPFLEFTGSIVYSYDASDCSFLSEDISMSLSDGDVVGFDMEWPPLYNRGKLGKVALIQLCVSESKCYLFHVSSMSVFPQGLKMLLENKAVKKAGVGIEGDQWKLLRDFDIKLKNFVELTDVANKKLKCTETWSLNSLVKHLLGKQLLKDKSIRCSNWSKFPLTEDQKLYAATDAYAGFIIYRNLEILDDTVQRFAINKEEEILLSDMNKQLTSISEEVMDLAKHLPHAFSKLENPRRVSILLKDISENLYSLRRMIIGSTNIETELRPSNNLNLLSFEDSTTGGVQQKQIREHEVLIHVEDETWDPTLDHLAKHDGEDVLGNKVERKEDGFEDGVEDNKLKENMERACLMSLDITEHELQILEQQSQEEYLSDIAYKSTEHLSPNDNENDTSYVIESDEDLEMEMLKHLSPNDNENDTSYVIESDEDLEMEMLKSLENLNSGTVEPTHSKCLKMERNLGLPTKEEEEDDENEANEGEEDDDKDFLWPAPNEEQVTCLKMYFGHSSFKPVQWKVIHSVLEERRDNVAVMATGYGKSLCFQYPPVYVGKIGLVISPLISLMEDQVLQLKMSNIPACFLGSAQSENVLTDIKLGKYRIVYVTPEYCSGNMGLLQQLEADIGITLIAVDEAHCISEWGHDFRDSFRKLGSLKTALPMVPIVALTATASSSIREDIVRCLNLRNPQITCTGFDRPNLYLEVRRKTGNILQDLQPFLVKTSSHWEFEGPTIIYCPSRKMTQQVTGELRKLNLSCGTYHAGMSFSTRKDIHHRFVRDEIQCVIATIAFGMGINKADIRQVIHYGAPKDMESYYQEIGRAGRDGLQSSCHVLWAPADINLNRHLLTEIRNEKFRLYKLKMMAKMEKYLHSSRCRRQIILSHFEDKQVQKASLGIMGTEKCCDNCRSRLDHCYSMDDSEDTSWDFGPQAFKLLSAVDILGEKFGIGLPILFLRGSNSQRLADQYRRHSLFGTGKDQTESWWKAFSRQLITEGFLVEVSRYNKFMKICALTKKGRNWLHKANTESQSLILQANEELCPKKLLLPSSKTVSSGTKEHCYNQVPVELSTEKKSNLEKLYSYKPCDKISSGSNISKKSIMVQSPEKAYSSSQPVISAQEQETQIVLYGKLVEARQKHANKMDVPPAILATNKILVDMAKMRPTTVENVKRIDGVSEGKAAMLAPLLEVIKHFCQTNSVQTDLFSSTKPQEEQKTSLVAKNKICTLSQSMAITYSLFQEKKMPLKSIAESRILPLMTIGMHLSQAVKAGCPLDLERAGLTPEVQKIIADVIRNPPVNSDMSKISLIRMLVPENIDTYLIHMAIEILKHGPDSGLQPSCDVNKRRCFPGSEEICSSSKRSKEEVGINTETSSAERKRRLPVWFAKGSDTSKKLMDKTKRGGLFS
binder,measurement,setting,value
"Forked DNA (Figure 1A) (structured_DNA, amino C6 dT at dye sites) DNA 1: GAGAAGCACGCTGCCGAATTCTACCAGTGCCTTGCTAGGACATGTTTGCCTTTTTTTTTTTTTTTTTTTTTTTTTTTTTT DNA 2: TTTTTTTTTTTTTTTTTTTTTTTTGGCAAACATGTCCTAGCAAGGCACTGGTAGAATTCGGCAGCGTGCTTCTC",binding result,[1],binds
"Model replication fork (Figure 1B) (structured_DNA, amino C6 dT at dye sites of the daughter strands) DNA 1: TCGACAGGTCATGGCCGTACATGATATCCTCGAGCGGTCCTGTTGCAACTTA DNA 2: TCAGAGTGTTAAGTTGCAACAGGACCGCTCGAGGATATCATGTACGGCCATGACCTGTCG DNA 3: TGTTAACCCTAACCCTAAGAATTCGGCTTAAGTGAGTGTTAAGTTGCAACAGGACCGCTCGAGGATATCATGTACGGCCATGACCTGTCGA DNA 4: CGACAGGTCATGGCCGTACATGATATCCTCGAGCGGTCCTGTTGCAACTTAACACTCTGAATAGCCGAATTCTTAGGGTTAGGGTTAACA",binding result,[2],binds
"Replication fork with 15 bp non-homologous region (Figure 3D) (structured_DNA, amino C6 dT at dye sites of the daughter strands) DNA 1: TCGACAGGTCATGGCCGTACATGATATCCTCGAGCGGTCCTGTTGC DNA 2: TCAGAGTGTGCAACAGGACCGCTCGAGGATATCATGTACGATAGCTTGGCCGCAT DNA 3: TGTTAACCCTAACCCTAAGAATTCGGCTTAAGTGAGTGTGCAACAGGACCGCTCGAGGATATCATGTACGGCCATGACCTGTCGA DNA 4: ATGCGGCCAAGCTATCGTACATGATATCCTCGAGCGGTCCTGTTGCACACTCTGAATAGCCGAATTCTTAGGGTTAGGGTTAACA",binding result,[3],binds
